# According to paper PMC6894071:
# Columns and labels:
# [1] = target: EGFP-tagged bovine cationic amino acid transporter 1 (CAT1)/solute carrier family 7 member 1 (SLC7A1) (bovine) (UniProt F1N5P6); test: flow cytometry on cells
# [2] = target: Feline CAT1/SLC7A1, endogenous in CC81-GREMG cells (feline (endogenous in CC81-GREMG)); test: flow cytometry on cells
substance,measurement,setting,value
Bovine leukemia virus envelope glycoprotein (Env) on BLV particles (from UniProt P03380 34-301; P03380 302-515) (complex),percent APC-EGFP double-positive cells at 1 h,[1],18.7%
same,percent APC-EGFP double-positive cells at 2 h,[1],23.7%
same,percent of cells bound with BLV particles (with control serum 1:10),[2],57%
same,percent of cells bound with BLV particles (with control serum 1:50),[2],49%
